Assay results taken from US20110262446A1.

Legend:
[1] = biological target: IGF-IIE (amino acids 1-104) (human) (UniProt P01344); assay: cell-based or functional assay
[2] = biological target: IGF-IIE (amino acids 1-104) (human) (UniProt P01344); assay: SPR (Flexchip), Fab, first of duplicate; unit inferred
[3] = biological target: IGF-IIE (amino acids 1-104) (human) (UniProt P01344); assay: SPR (Flexchip), Fab, second of duplicate; unit inferred
[4] = biological target: IGF-IIE (amino acids 1-104) (human) (UniProt P01344); assay: competition SPR (Biacore T100), affinity in solution: Fab pre-incubated with ligand, free ligand read on immobilized huIR-A ECD; measurement #1; head prints 'KD nM'
[5] = biological target: IGF-IIE (amino acids 1-104) (human) (UniProt P01344); assay: competition SPR (Biacore T100), affinity in solution: Fab pre-incubated with ligand, free ligand read on immobilized huIR-A ECD; measurement #2; head prints 'KD nM'
[6] = biological target: IGF-IIE (amino acids 1-104) (human) (UniProt P01344); assay: SPR (Biacore T100): IgG captured on Protein G', ligand bound, then BP injected; competitor BP2
[7] = biological target: IGF-IIE (amino acids 1-104) (human) (UniProt P01344); assay: SPR (Biacore T100): IgG captured on Protein G', ligand bound, then BP injected; competitor BP4
[8] = biological target: IGF-IIE (amino acids 1-104) (human) (UniProt P01344); assay: SPR (Biacore), non-germlined IgG
[9] = biological target: IGF-IIE (amino acids 1-104) (human) (UniProt P01344); assay: SPR (Biacore), germlined IgG

Chain of IGF-IIE (amino acids 1-104) (human) (P01344 25-128 limits assumed, form in doubt): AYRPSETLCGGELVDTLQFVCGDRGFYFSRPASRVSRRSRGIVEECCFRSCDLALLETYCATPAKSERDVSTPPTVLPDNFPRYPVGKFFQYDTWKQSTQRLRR

Row | Kd [2] | Kd [4] | competition score (0 = does not compete significantly, 5 = competes strongly) [6] | competition score (0 = does not compete significantly, 5 = competes strongly) [7] | Binder | other results
1 | 0.12 nM | 2.78 nM | – | – | M0063-F02 Fab (Fab, V domains shown) VH: EVQLLESGGGLVQPGGSLRLSCAASGFTFSKYEMDWVRQAPGKGLEWVSVISSSGGGTIYADSVKGRFTISRDNSKNTLYLQMNSLRAEDTAMYYCARGRTLYGGAFDIWGQGTMVTVSS VL: DIQMTQSPSSLSASVGDRVTITCRASQPINTYLNWYQQRPGKAPRILIYTSSTLQSGVPSRFSGSGSGTDFTLTISSVQPEDFATYYCQQSYSFPLTFGGGTKVEIKR | IC50, IGF-IIE stimulated BA/F3 cell proliferation (MTS) [1]: 2.04 µg/mL; Kd [3]: 0.2 nM; Kd [5]: 1.47 nM
2 | – | – | 1 score 0-5 | 1 score 0-5 | M0063-F02 IgG (antibody, V domains shown) VH: EVQLLESGGGLVQPGGSLRLSCAASGFTFSKYEMDWVRQAPGKGLEWVSVISSSGGGTIYADSVKGRFTISRDNSKNTLYLQMNSLRAEDTAMYYCARGRTLYGGAFDIWGQGTMVTVSS VL: DIQMTQSPSSLSASVGDRVTITCRASQPINTYLNWYQQRPGKAPRILIYTSSTLQSGVPSRFSGSGSGTDFTLTISSVQPEDFATYYCQQSYSFPLTFGGGTKVEIK | IC50, IGF-IIE stimulated BaF3 cell proliferation (Guava ViaCount) [1]: 0.85 nM; IC50, IGF-IIE stimulated BaF3 cell proliferation (Guava ViaCount), second study [1]: 10 nM
3 | – | – | 4 score 0-5 | 4 score 0-5 | M0064-E04 IgG (antibody, V domains shown) VH: EVQLLESGGGLVQPGGSLRLSCAASGFTFSVYDMNWVRQAPGKGLEWVSSISSSGGGTLYADSVKGRFTISRDNSKNTLYLQMNSLRAEDTAVYYCARDSDTSSYYWYYDLWGRGTLVTVSS VL: DIQMTQSPSSLSASVGDRVTITCQASHDISNYLNWYQQKPGKAPKLLIYAASRLQSGVPSRFSGGGSGTDFSLTISSLQAEDFATYYCQQSYSFPRTFGQGTNLEIK | IC50, IGF-IIE stimulated BaF3 cell proliferation (Guava ViaCount) [1]: 130 nM; Kd [8]: 0.24 nM
4 | – | – | – | – | X0005-H01 (germlined M0064-E04 IgG) (antibody, V domains shown) VH: EVQLLESGGGLVQPGGSLRLSCAASGFTFSVYDMNWVRQAPGKGLEWVSSISSSGGGTLYADSVKGRFTISRDNSKNTLYLQMNSLRAEDTAVYYCARDSDTSSYYWYYDLWGRGTLVTVSS VL: DIQMTQSPSSLSASVGDRVTITCQASHDISNYLNWYQQKPGKAPKLLIYAASRLQSGVPSRFSGSGSGTDFTLTISSLQPEDFATYYCQQSYSFPRTFGQGTRLEIK | Kd [9]: 0.26 nM
5 | 0.52 nM | 3.95 nM | – | – | M0072-C06 Fab (Fab, V domains shown) VH: EVQLLESGGGLVQPGGSLRLSCAASGFTFSAYIMTWVRQAPGKGLEWVSSISPSGGYTVYADSVKGRFTISRDNSKNTLYLQMNSLRAEDTAVYYCARDSGFGDPFDYWGQGTMVTVSS VL: DIQMTQSPSSLSASVGDRVTITCRASQSIRNYLNWYQQKPGKAPKLLIYAASKLEDGVPSRFSGSGTGTDFTLTIRSLQPEDFASYFCQQSYSSPGITFGPGTKVEIKR | IC50, IGF-IIE stimulated BA/F3 cell proliferation (MTS) [1]: 2.3 µg/mL; Kd [5]: 1.05 nM
6 | – | – | 2 score 0-5 | 1 score 0-5 | M0072-C06 IgG (antibody, V domains shown) VH: EVQLLESGGGLVQPGGSLRLSCAASGFTFSAYIMTWVRQAPGKGLEWVSSISPSGGYTVYADSVKGRFTISRDNSKNTLYLQMNSLRAEDTAVYYCARDSGFGDPFDYWGQGTMVTVSS VL: DIQMTQSPSSLSASVGDRVTITCRASQSIRNYLNWYQQKPGKAPKLLIYAASKLEDGVPSRFSGSGTGTDFTLTIRSLQPEDFASYFCQQSYSSPGITFGPGTKVEIK | –
7 | – | – | – | – | X0008-A01 (germlined M0064-F02 IgG) (antibody, V domains shown) VH: EVQLLESGGGLVQPGGSLRLSCAASGFTFSNYIMWWVRQAPGKGLEWVSVISSSGGMTRYADSVKGRFTISRDNSKNTLYLQMNSLRAEDTAVYYCARDNGDYVGEKGFDIWGQGTMVTVSS VL: DIQMTQSPSSLSASVGDRVTITCRASQSISNYLNWYQQKPGKAPKLLIYTASTLQSGVPSRFSGSGSGTDFTLTISSLQPEDFATYYCQQSYNSPWTFGQGTKVEIK | Kd [9]: < 0.023 nM
8 | – | – | 2 score 0-5 | 1 score 0-5 | M0070-H08 IgG (antibody, V domains shown) VH: EVQLLESGGGLVQPGGSLRLSCAASGFTFSRYWMIWVRQAPGKGLEWVSSIRSSGETKYADSVKGRFTISRDNSKNTLYLQMNSLRAEDTAVYYCARGPLSDYYDSSGYYFDAFDIWGQGTMVTVSS VL: DIQMTQSPSSLSASAGDRVTITCRASQSISSYLNWYQQKPGKAPNLLIYTTSNLQGGVPSRFSGSGSGTDFTLTISSLQPEDFATYYCQQGYSFPLTFGGGTKVEIK | –
9 | 0.36 nM | 4.83 nM | – | – | M0070-H08 Fab (Fab, V domains shown) VH: EVQLLESGGGLVQPGGSLRLSCAASGFTFSRYWMIWVRQAPGKGLEWVSSIRSSGETKYADSVKGRFTISRDNSKNTLYLQMNSLRAEDTAVYYCARGPLSDYYDSSGYYFDAFDIWGQGTMVTVSS VL: DIQMTQSPSSLSASAGDRVTITCRASQSISSYLNWYQQKPGKAPNLLIYTTSNLQGGVPSRFSGSGSGTDFTLTISSLQPEDFATYYCQQGYSFPLTFGGGTKVEIKR | Kd [3]: 0.39 nM
